Changes are numbered by the printed parent chain.
B1: V0024 (antibody, V domains shown)
VH: QVQLQQPGTELVKPGASVKLSCKASGYTFTRFWMHWVKQRPGQGLEWIGNINPNNGGTDNNERFKSKATLTVDRSSSTAYMQLSSLTSEDSAVYYCARGTGTGAMDYWGQGTSVTVSS
VL: DVVMTQTPLSLPVSLGDQASISCRSSQSLVHSNGNTHLYWYLQKPGQSPKLLIYRVSSRFSGVPDRFSGSGSGTDFTLKISRVEAEDLGVYFCFQGTHVPRTFGGGTKLEIK
modifications: here or on the partner: phosphorylated residues of pathological tau, sites not stated
B2: V0052 (antibody, V domains shown)
VH: not shown
VL: SIVMTQTPKFLLVSAGDRVTITCKASQSVSNDVAWYQQKPGQSPKLLIYYASNRCTGVPDRFTGSGYGTDFTFTISTVQAEDLAVYFCQQDYRSPLTFGAGTKLELK
B3: V0058 (antibody, V domains shown)
VH: not shown
VL: DIVMTQSPSSLSVSAGEKVTMSCKSSQSLLSSGNQKNYLAWYQQKPGQPPKLLIYGASTRESGVPDRFTGSGSGTDFTLTISSVQAEDLAVYYCQNDHSHPYTFGGGTKLEIK
B4: V0055 (antibody, V domains shown)
VH: not shown
VL: B3 VL with S31N
B5: V0057 (antibody, V domains shown)
VH: not shown
VL: B3 VL with S31N
B6: V0054 (antibody, V domains shown)
VH: not shown
VL: B3 VL with S31N, A57T
B7: V0004 (antibody, V domains shown)
VH: QVQLQQPGAELVKPGASVKLSCKASDYTFTNYWMHWVKQRPGRGLEWIGRIDPNSGGTRYNEKFKNKATLTVDKPSSTAYMHLSSLTSEDSAVYYCAGDFDVWGTGTTVTVSS
VL: DIQMTQSPASLSASVGETVTITCRASGNIHNYLAWYQQRQGKSPQLLVYNAKTLPDGVPSRFSGSGSGTQYSLKINSLQPEDFGSYCCQHFWSTPLTFGAGTKLELK
B8: V0021 (antibody, V domains shown)
VH: QVQLQQPGIELVKTGASVKLSCKASGYTFTSNWMHWLKQRPGQGLEWIGNINPNNSETNYNEKFRKKATLTVDKSSSAAYMQLISLTSEDSAVYYCARANYYGGSQFAYWGQGTLVTVSA
VL: DVVMTQTPLSLCVSLGDQASISCRSSQSLVHSNGKTYLHWYLQKPGQSPNLLIYKVSNRFSGVPDRFSGSGSGTDFTLKISRVEAEDLGVYFCSQSTHVPFTFGSGTKLEIK
B9: V0020 (antibody, V domains shown)
VH: B8 VH with I9T, E10D, T14P, N32Y, E57D, T58A, R65K, K66S
VL: B8 VL with M4V, C12P
B10: V0027 (antibody, V domains shown)
VH: QVQLQQSGPELVKPGASVKISCKASGYTFTEYYLNWMKQRPGQGLEWIGWIFPGRGSTNYNEKFKGKATLTVDKSSSTAYMLLSSLTSEDSAVYFCARPTIVARDYAMDYWGQGTSVTVSS
VL: DVLMTQTPLSLPVSLGDQASISCRSSQSIVHRNGNTYLEWYLQKPGQSPKLLIYKVSNRFSGVPDRFSGSGSGTDFTLKISRVEAEDLGVYYCFQGSHVPFTFGSGTKLEIK
B11: V0032 (antibody, V domains shown)
VH: QVQLKQSGAELVRPGASVKLSCKTSGYTFTDYYIKWVKQRPGQGLEWIARIYPGSGNTYYNEKFKGKATLTAEKSSSTAYMQLSSLTSEDSAVYFCARPAYYSKDYAMEYWGQGTSVTVSS
VL: B10 VL with H31Y, R32T, F101Y, S105G
B12: V0031 (antibody, V domains shown)
VH: QVQLQQPGTELVKPGASVKLSCKASGYTFTSYWMHWVKQRPGQGLEWIGNIYPSNGGTYYNEKFKSKATLTVDKSSSTAYMQLSSLTSEDSAVYYCARSSVVGRDYAMDYWGQGTSVTVSS
VL: B10 VL with S22A, R32S, K50E, F101Y, S105G
B13: V0022 (antibody, V domains shown)
VH: QVQLQQPGTELVKPGSSVNLSCKASGFTFTRYWMHWVKERPGHGLEWIGNINPNNGGTDFNEKFKNKATLTVHKSSTTVFIQLSSLTSEDSAVYYCARGTGTGAMDYWGQGTSVTVSS
VL: B1 VL with S32N, N35I, H37Y, S58N, S68G
B14: V0026 (antibody, V domains shown)
VH: B10 VH with T28S, E31D, L34I, M37V, R55S, G56D, N59Y, Y80S, I101V
VL: B10 VL with H31Y, R32S, F101Y, S105G
B15: V0023 (antibody, V domains shown)
VH: B1 VH with R31I, Q43H, N50K, T58G, N60Y, R63K, R74K, S77T, M81L
VL: B1 VL with Q18H, N35I, K44R, S48T, S58N, R82S, K112E
B16: V0050 (antibody, V domains shown)
VH: EVQLQQSGPELVKPGASVKIPCRASGYTFTDYNMDWVKQSHGKTLEWIGDINPNNGGTIYNQKFKGKATLTVDKSSSTAYMELRSLTSEDTAVYYCARGRGMGYYALDYWGQGTSVTVSS
VL: DIQMTQSPASLSASVGETVTFTCGASENVYGALNWYQRKQGKSPQLLIYGATNLADGMSSRFSGSGSGRQYSLKISSLHPDDVATYYCQNVLTIPWTFGGGAKLEIK
B17: V00016 (antibody, V domains shown)
VH: EVQLQQSGAELVKPGASVKLSCTASGFNIKDYYIHWVKQRTEQGLEWIGRIDPEDGETKYAPKFQGKATIAADTSSNTAYLHLNSLTSEDTAVYYCAREFSYAMDYWGQGTSVTVSS
VL: NIMMTQSPSSLAVSAGEKVTMSCKSSQSVLYSSNQKNYLAWYQQKPGQSPKLLIYWASTRESGVPDRFTGSGSGTDFTLTISSVQAEDLAVYYCHQYLSSRTFGGGTKLEIK

Each binder was assayed against T1, enriched paired helical filament tau protein (ePHF) (human) (assay: direct ELISA). Conditions: remark: other sources report otherwise.

For B1, which EC50 is on record?
The EC50 was 0.125 nM.

The binders below were run against T1, enriched paired helical filament tau … (assay: follow up analysis, method not stated). Conditions: remark: other sources report otherwise.

How did the selectivity for ePHF over wild type tau turn out when B1 was run?
The selectivity for ePHF over wild type tau was greater than 100 fold.

These binders were tested against wild type tau (Homo sapiens (Human)), P10636 (assay: Octet). Conditions: remark: other sources report otherwise.

For B2, which Kd is on record?
Its Kd is greater than 200 nM.

Which Kd does the source give for B3 here?
The Kd was greater than 200 nM.

How did the Kd turn out when B4 was run?
Its Kd is greater than 200 nM.

How did the Kd turn out when B5 was run?
Its Kd is greater than 200 nM.

With B6 as the binder, how does the Kd read?
The Kd was greater than 200 nM.

How did the Kd turn out when B7 was run?
The Kd was greater than 200 nM.

How did the Kd turn out when B8 was run?
Its Kd is greater than 200 nM.

For B9, which Kd is on record?
The Kd was greater than 200 nM.

B10 was tested. Which Kd did it give?
The Kd was greater than 200 nM.

With B11 as the binder, how does the Kd read?
The Kd was greater than 200 nM.

B12 was tested. Which Kd did it give?
The Kd was greater than 200 nM.

With B1 as the binder, how does the Kd read?
Its Kd is greater than 200 nM.

With B13 as the binder, how does the Kd read?
The Kd was greater than 200 nM.

How did the Kd turn out when B14 was run?
Its Kd is greater than 200 nM.

B15 was tested. Which Kd did it give?
The Kd was greater than 200 nM.

For B16, which Kd is on record?
Its Kd is greater than 200 nM.

These binders were tested against iPHF (Homo sapiens (Human)), P10636 (assay: Octet, antibody on biosensor tips). Conditions: remark: other sources report otherwise.

With B1 as the binder, how does the Kd read?
The Kd was 2.8 nM.

For B17, which Kd is on record?
The Kd was 5.5 nM.

Source: patent publication US12709641B2
